Series [1] concerns the target T1, EutV (Enterococcus faecalis, UniProt A0A1Q1FU69 1-190).
T1 sequence: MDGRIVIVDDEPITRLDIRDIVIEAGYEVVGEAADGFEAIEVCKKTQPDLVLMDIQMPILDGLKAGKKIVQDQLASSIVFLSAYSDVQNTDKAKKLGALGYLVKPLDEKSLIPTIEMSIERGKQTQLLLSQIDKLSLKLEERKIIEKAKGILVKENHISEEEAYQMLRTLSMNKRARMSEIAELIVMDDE
The experiment in a line: SPR. Conditions: SPR: 10 mM HEPES pH 7, 150 mM NaCl, 0.05% Tween-20, 2.5 mM MgCl2, 4 C; EMSA: 25 mM HEPES pH 7.5, 150 mM NaCl, 10 mM MgCl2, 4 C, 25 nM RNA.

The target in series [2] is T1, EutV. The experiment in a line: SPR; CAPture chip, 2.5 mM MgCl2, n=8; SPR: 10 mM HEPES pH 7, 150 mM NaCl, 0.05% Tween-20, 2.5 mM MgCl2, 4 C; EMSA: 25 mM HEPES pH 7.5, 150 mM NaCl, 10 mM MgCl2, 4 C, 25 nM RNA. The conditions noted are these: protein: recombinant; tags: none (His-tag cleaved by TEV); chain copies: 2; label: 3' biotin-TEG; two hairpins with hexaloops P1 and P2.

In series [3] the target is EutV N173A/R175A/R177A (Enterococcus faecalis, UniProt A0A1Q1FU69 1-190, N173A;R175A;R177A). The series can be described thus: SPR; 2.5 mM MgCl2; SPR: 10 mM HEPES pH 7, 150 mM NaCl, 0.05% Tween-20, 2.5 mM MgCl2, 4 C; EMSA: 25 mM HEPES pH 7.5, 150 mM NaCl, 10 mM MgCl2, 4 C, 25 nM RNA. Conditions: protein: recombinant; chain copies: 2; label: 3' biotin-TEG; two hairpins with hexaloops P1 and P2.

Series [4] concerns the target EutV M172A (Enterococcus faecalis, UniProt A0A1Q1FU69 1-190, M172A). The series is described as above. Conditions: protein: recombinant; chain copies: 2; label: 3' biotin-TEG; two hairpins with hexaloops P1 and P2.
Series [5] concerns the target EutV Y164A (Enterococcus faecalis, UniProt A0A1Q1FU69 1-190, Y164A). Described as above. Conditions: protein: recombinant; chain copies: 2; label: 3' biotin-TEG; two hairpins with hexaloops P1 and P2.
In series [6] the target is EutV R142A (Enterococcus faecalis, UniProt A0A1Q1FU69 1-190, R142A). The series is described as above. The conditions noted are these: protein: recombinant; chain copies: 2; label: 3' biotin-TEG; two hairpins with hexaloops P1 and P2.
Series [7] addresses EutV E160A (Enterococcus faecalis, UniProt A0A1Q1FU69 1-190, E160A). Described as above. Conditions: protein: recombinant; chain copies: 2; label: 3' biotin-TEG; two hairpins with hexaloops P1 and P2.
The target of series [8] is EutV K143A/K147A (Enterococcus faecalis, UniProt A0A1Q1FU69 1-190, K143A;K147A). The series is described as above. Conditions: protein: recombinant; chain copies: 2; label: 3' biotin-TEG; two hairpins with hexaloops P1 and P2.
The target in series [9] is T1, EutV. The series can be described thus: SPR; unphosphorylated, CM5 streptavidin chip, n=6; SPR: 10 mM HEPES pH 7, 150 mM NaCl, 0.05% Tween-20, 2.5 mM MgCl2, 4 C; EMSA: 25 mM HEPES pH 7.5, 150 mM NaCl, 10 mM MgCl2, 4 C, 25 nM RNA. The conditions noted are these: protein: recombinant; tags: none (His-tag cleaved by TEV); chain copies: 2; label: 3' biotin-TEG; two hairpins with hexaloops P1 and P2.

P2 hairpin: the equilibrium dissociation constant (Kd) in [1] turned out to be 3.1 µM.

P1 hairpin yielded a Kd in series [1] of 6 µM.

B1: EutP RNA, 3' biotin (structured_RNA)
RNA: AGAAUCAGAAACACAAUGGCGUGUUUUAACAAAUCGGCAAAGGAGCCCAAG
With B1, the Kd was 3.8 ± 2.1 µM in series [2] and 2200 ± 200 nM in series [9]. Further, the binding result in [3] and in [4] was “no binding” in each case. Also, the binding signal in [5] is 55 fold reduction in affinity vs WT; in series [6], 8 fold reduction in affinity vs WT; in series [7] it was 60 fold reduction in affinity vs WT; in [8], 5 fold reduction in affinity vs WT.

The record behind these values is paper PMC8934654, “Structural characterization of the ANTAR antiterminator domain bound to RNA”.
